Consider two molecules from US12708677B2, “Contrast agents, methods for preparing contrast agents, and methods of imaging” (Georgia State University Research Foundation, Inc., priority 2008, dated 2026).

Values joined by “and” are separate entries in the source; they are usually repeats but may differ in a detail not shown here. Equal entries are not always repeated. Marks after values point to notes of the source that are not given here.

Data set [1] in a line: Water coordination number by terbium life time luminescence. Format: physicochemical. As to the method: Measurement of Water Coordination Number by Terbium Life Time Luminescence. The number of water ligands coordinated to Gd^3+-CA1.CD2 complex was determined by measuring Tb^3+ luminescence decay in H2O or D2O. Tb^3+ excited state lifetime was measured using a fluorescence spectrophotometer (Photon Technology International, Inc.) with a 10 mm path length quartz cell at 22° ° C. Following excitation at 265 nm with a XenoFlash (Photon Technology International, Inc.), Tb^3+ emission was monitored at 545 nm in a time series experiment in both H2O and D2O systems. Luminescence decay lifetime was obtained by fitting the acquired data with a mono-exponential decay function. H2O in CA1.CD2 solution was replaced with D2O by lypholization and re-dissolved in D2O at least three times. A standard curve correlating the Δkobs with water number under our experimental conditions was established by using well-characterized chelators, such as EDTA (q=3), DTPA (q=1), NTA (q=5), and Aquo Tb^3+ (q=9) solution with R^2=0.997.^26,27 Water number coordinated to Tb^3+-CA1.CD2 complex was then obtained by fitting the acquired Δkobs value to the standard curve.
The numbers of water ligands coordinated to Gd^3+-CA1.CD2 and variants complex were determined by measuring Tb^3+ luminescence decay in H2O or D2O (Yang et al., 2008). Tb^3+ excited state lifetime was measured using a fluorescence spectrophotometer (Photon Technology International, Inc.) with a 10 mm path length quartz cell at 22° C. Following excitation at 265 nm with a XenoFlash (Photon Technology International, Inc.), Tb^3+ emission was monitored at 545 nm in a time series experiment in both H2O and D2O systems. Luminescence decay lifetime was obtained by fitting the acquired data with a mono-exponential decay function. H2O in CA1.CD2 solution was replaced with D2O by lypholization and re-dissolved in D2O at least three times. A standard curve correlating the Δkobs with water number under our experimental conditions was established by using well-characterized chelators, such as EDTA (q=3). DTPA (q=1), NTA (q=5), and Aquo Tb^3+ (q=9) solation with R^2=0.997.^26, 27 Water number coordinated to Tb^+-CA1.CD2 complex was then obtained by fitting the acquired Δkobs value to the standard curve.

Data set [2] is described as follows: Zn^2+ binding affinity, dye competition assay (FluoZin). An excerpt:
FIG. 1.6: Measurement of metal binding constants. Gd^3+ binding affinity (FIG. 1.6a) and Zn^2+ binding affinity (FIG. 1.6b) of CA1.CD2 measured by dye competition assays. CA1.CD2 stock solution was gradually added into the 1:1 dye-metal complex to compete for the dye-bound metal ions. The insets show the titration curve for the dye indicators fluo 5N (FIG. 1.6a) and FluoZin (FIG. 1.6b), respectively. (FIG. 1.6c) La^3+ binding affinity obtained by Aromatic residue sensitized Tb^3+ luminescence energy transfer. The Tb^3+ fluorescence of a protein-Tb^3+ mixture decreases with the addition of La^3+. The La^3+ concentrations are 0, 0.30, 0.76, 5.95, 11.03, and 28.95 μM from top to bottom. The Tb^3+ fluorescence decrease competition was fitted (line) by a normal competition plus a nonspecific quenching effect (inset).
(§1) Since metal selectivity for Gd^3+ over other physiological metal ions is for minimizing the toxicity of the agents,^39, 40 we measured metal binding constants using dye-competition assays with various chelate-metal buffer systems (Table 1). Low limit metal binding affinities of the proteins were also estimated based on Tb^3+-sensitized FRET and competition assays. […] This is considered for in vivo applications of the contrast agent as the phosphate concentration in serum is maintained at ~1.3 mM.^6, 9 The stability of a contrast agent in blood circulation is another factor for in vivo applications. We characterized the stability by incubating Gd-CA1.CD2 with 75% human serum at 37° C. for 3 and 6 hours.
(§2) Metal binding affinity for Ca^2+ and Zn^2+ were determined using similar competition methods and specific dyes with proper Kd values.

Data set [3] in a line: Mg^2+ binding constant, competition assays.
Text: as §1

Data set [4] can be described thus: Ca^2+ binding constant, dye competition / Tb^3+ FRET competition.
Text: as §1, §2

A further data set has as its system CD-1 mice. Briefly: Toxicity analyses and clinical pathology in mice.

Description for CD-1 mice: Toxicity Analyses. […] Tissue samples from kidney, liver, spleen, and lung were collected.
One group of mice received (i.v. tail veil) 50 μl of saline-buffer (as control). […] Blood samples were collected from the experimental mice. Serum samples were prepared from the collected blood. Liver enzymes in serum samples, including Alanine transaminase (ALT), Alkaline phosphatase (ALP), Aspartate transaminase (AST), Gamma glutamyl transpeptidase (GGT), and bilirubin and urea nitrogen were analyzed by a commercially available source (MU Research Animal Diagnostic Laboratory). All clinical chemistry parameters were measured on an Olympus AU 400 analyzer.
Tissue samples from kidney, liver, spleen, and lung were collected.

B1: CA1.CD2: designed Gd^3+-binding protein, domain 1 of rat CD2 with ligand residues Glu15, Glu56, Asp58, Asp62, Asp64 (protein)
chain: RDSGTVWGALGHGIELNIPNFQMTDDIDEVRWERGSTLVAEFKRKMKPFLKSGAFEIDANGDLDIKNLTRDDSGTYNVTVYSTNGTRILNKALDLRILE
For the molecule B1, in data set [1], the “hydration number (water number in the coordination shell)” value was 2.1 and 2. Further, in data set [1] (in D2O), the “Tb^3+ life time” value was 1,679 μs. The “Tb^3+ life time” value in data set [1] (protein complex in H2O) turned out to be 859 μs. Also, in data set [2], the “Metal binding constant (Log Ka) Zn^2+” value came to 6.72 and the “disassociation constant (Kd) for Zn^2+” value was 0.00019 mM. Further, the “Log (KGd/KZn)” value in data set [2] (metal selectivity) was found to be 5.34. Moreover, in data set [3], the “Metal binding constant (Log Ka) Mg^2+” value is under 2.0 and the “disassociation constant (Kd) for Mg^2+” value was over 10 mM. In addition, in data set [3] (metal selectivity), the “Log (KGd/KMg)” value was over 10.06. In data set [4], the “Metal binding constant (Log Ka) Ca^2+” value was under 2.22 and the “disassociation constant (Kd) for Ca^2+” value was at least 6 mM. The “Log (KGd/KCa)” value in data set [4] (metal selectivity) is listed as over 9.84.

B2: Gd-CA1.CD2: CA1.CD2 in complex with Gd^3+ (protein)
chain: B1 chain
Take B2: in the data set with CD-1 mice (4.0 μmole/kg, n = 4), the ALP is reported as 115.0 ± 0.2 U/L, the ALT was determined as 49.0 ± 0.2 U/L, the AST was found to be 280.0 ± 0.2 U/L and the “Direct Bili” value is on record as 0.0 mg/L. In the data set on CD-1 mice (4.0 μmole/kg, n = 4), the GGT amounted to 0.0 U/L, the “Total Bili” value stood at 0.4 ± 0.2 mg/L, the “Total Urine Protein” value came to 5.2 ± 0.2 g/L and the “Urea Nitrogen” value was 26.0 ± 0.2^d mg/L. In addition, the “effects on liver enzymes (ALT, ALP, AST), serum urea nitrogen, bilirubin, total protein vs control mice” value with CD-1 mice (48 hours post-contrast injection) is “negligible”. Also, the acute toxicity entry in the data set on CD-1 mice (~2.4 μmole/kg, observed five days) is “did not exhibit acute toxicity”.
